According to US20210261648A1 (published 2021):

T1: FcγRIIb extracellular domain with C-terminal His tag (human, UniProt P31994 43-217)
T1 construct: extracellular domain; also called FcgRIIb
T1 sequence (looked up): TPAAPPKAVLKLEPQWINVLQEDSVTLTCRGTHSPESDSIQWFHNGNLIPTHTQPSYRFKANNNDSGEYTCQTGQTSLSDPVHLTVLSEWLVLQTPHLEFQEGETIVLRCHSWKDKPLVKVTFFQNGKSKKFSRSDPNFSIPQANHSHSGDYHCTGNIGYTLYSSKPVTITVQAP

T2: FcγRIIa type R (human, UniProt P12318 34-217)
T2 chain: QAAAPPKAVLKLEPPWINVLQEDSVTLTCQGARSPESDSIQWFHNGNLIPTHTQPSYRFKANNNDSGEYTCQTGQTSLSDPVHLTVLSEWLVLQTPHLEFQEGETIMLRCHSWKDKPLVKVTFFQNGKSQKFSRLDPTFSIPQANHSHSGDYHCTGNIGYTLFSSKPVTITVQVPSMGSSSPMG


Tests used:
[1] = molecular target: T3, FcγRIa extracellular domain with C-terminal His tag (human, UniProt P12314 16-292); test: SPR, captured antibody, FcgR analyte
T3 construct: also called FcgRIa
T3 sequence (P12314 16-292): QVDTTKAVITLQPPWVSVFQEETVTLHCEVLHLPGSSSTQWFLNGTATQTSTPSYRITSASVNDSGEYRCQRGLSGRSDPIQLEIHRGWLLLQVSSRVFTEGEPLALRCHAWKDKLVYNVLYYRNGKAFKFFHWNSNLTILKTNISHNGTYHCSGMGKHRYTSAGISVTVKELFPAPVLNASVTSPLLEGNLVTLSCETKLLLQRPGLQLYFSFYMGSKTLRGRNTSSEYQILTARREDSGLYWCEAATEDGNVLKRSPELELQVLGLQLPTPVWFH
Method: (§1) Relative binding activities were calculated for the results of analyzing interactions with the respective FcγRs according to the following method.

[2] = molecular target: T1, FcγRIIb extracellular domain with …; test: SPR, captured antibody, FcgR analyte
Method: as §1

FcγRIIa type R = molecular target: T2, FcγRIIa type R; test: SPR (Biacore), captured antibody, soluble FcγR

relative binding activity [1] | relative binding activity [2] | Kd (FcγRIIa type R) | Binder
100 relative (IL6R-BF648/IL6R-L = 100) | 115 relative (IL6R-BF648/IL6R-L = 100) |  | IL6R-2B261/IL6R-L (antibody, human IgG1, kappa) heavy: QVQLQESGPGLVKPSETLSLTCAVSGHSISHDHAWSWVRQPPGEGLEWIGFISYSGITNYNPSLQGRVTISRDNSKNTLYLQMNSLRAEDTAVYYCARSLARTTAMDYWGEGTLVTVSSASTKGPSVFPLAPSSKSTSGGTAALGCLVKDYFPEPVTVSWNSGALTSGVHTFPAVLQSSGLYSLSSVVTVPSSSLGTQTYICNVNHKPSNTKVDKKVEPKSCDKTHTCPPCPAPDLLGGDSVFLFPPKPKDTLMISRTPEVTCVVVDVSHEDPEVKFNWYVDGVEVHNAKTKPREEQDNSTYRVVSVLTVLHQDWLNGKEYKCKVSNKALPAPIEKTISKAKGQPREPQVYTLPPSRDELTKNQVSLTCLVKGFYPSDIAVEWESNGQPENNYKTTPPVLDSDGSFFLYSKLTVDKSRWQQGNVFSCSVMHEALHNHYTQESLSLSP light: not shown
74 relative (IL6R-BF648/IL6R-L = 100) | 136 relative (IL6R-BF648/IL6R-L = 100) |  | IL6R-BP082/IL6R-L (antibody, human IgG1, kappa) heavy: QVQLQESGPGLVKPSETLSLTCAVSGHSISHDHAWSWVRQPPGEGLEWIGFISYSGITNYNPSLQGRVTISRDNSKNTLYLQMNSLRAEDTAVYYCARSLARTTAMDYWGEGTLVTVSSASTKGPSVFPLAPSSKSTSGGTAALGCLVKDYFPEPVTVSWNSGALTSGVHTFPAVLQSSGLYSLSSVVTVPSSSLGTQTYICNVNHKPSNTKVDKKVEPKSCDKTHTCPPCPAPDLLGGDSVFLFPPKPKDTLMISRTPEVTCVVVDVSHEDPEVKFNWYVDGVEVHNAKTKPREEQYNSTYRVVSVLTVLHQDWLNGKEYKCKVSNKALPKPIEKTISKAKGQPREPQVYTLPPSRDELTKNQVSLTCLVKGFYPSDIAVEWESNGQPENNYKTTPPVLDSDGSFFLYSKLTVDKSRWQQGNVFSCSVMHEALHNHYTQESLSLSP light: not shown
 |  | 350 nM | IL6R-BP264/IL6R-L (antibody, human IgG1, kappa, E233D/G237D/P238D/H268E/P271G/Y296D/A330R (EU numbering) in IL6R-B3) heavy: QVQLQESGPGLVKPSETLSLTCAVSGHSISHDHAWSWVRQPPGEGLEWIGFISYSGITNYNPSLQGRVTISRDNSKNTLYLQMNSLRAEDTAVYYCARSLARTTAMDYWGEGTLVTVSSASTKGPSVFPLAPSSKSTSGGTAALGCLVKDYFPEPVTVSWNSGALTSGVHTFPAVLQSSGLYSLSSVVTVPSSSLGTQTYICNVNHKPSNTKVDKKVEPKSCDKTHTCPPCPAPDLLGDDSVFLFPPKPKDTLMISRTPEVTCVVVDVSEEDGEVKFNWYVDGVEVHNAKTKPREEQDNSTYRVVSVLTVLHQDWLNGKEYKCKVSNKALPRPIEKTISKAKGQPREPQVYTLPPSRDELTKNQVSLTCLVKGFYPSDIAVEWESNGQPENNYKTTPPVLDSDGSFFLYSKLTVDKSRWQQGNVFSCSVMHEALHNHYTQESLSLSP light: not shown
19 relative (IL6R-BF648/IL6R-L = 100) | 152 relative (IL6R-BF648/IL6R-L = 100) |  | IL6R-BP085/IL6R-L (antibody, human IgG1, kappa) heavy: QVQLQESGPGLVKPSETLSLTCAVSGHSISHDHAWSWVRQPPGEGLEWIGFISYSGITNYNPSLQGRVTISRDNSKNTLYLQMNSLRAEDTAVYYCARSLARTTAMDYWGEGTLVTVSSASTKGPSVFPLAPSSKSTSGGTAALGCLVKDYFPEPVTVSWNSGALTSGVHTFPAVLQSSGLYSLSSVVTVPSSSLGTQTYICNVNHKPSNTKVDKKVEPKSCDKTHTCPPCPAPELLGDDSVFLFPPKPKDTLMISRTPEVTCVVVDVSHEDPEVKFNWYVDGVEVHNAKTKPREEQYNSTYRVVSVLTVLHQDWLNGKEYKCKVSNKALPKPIEKTISKAKGQPREPQVYTLPPSRDELTKNQVSLTCLVKGFYPSDIAVEWESNGQPENNYKTTPPVLDSDGSFFLYSKLTVDKSRWQQGNVFSCSVMHEALHNHYTQESLSLSP light: not shown
 |  | 390 nM | IL6R-BP428/IL6R-L (antibody, human IgG1, kappa, Alterations in EU numbering, introduced into IL6R-B3) heavy: QVQLQESGPGLVKPSETLSLTCAVSGHSISHDHAWSWVRQPPGEGLEWIGFISYSGITNYNPSLQGRVTISRDNSKNTLYLQMNSLRAEDTAVYYCARSLARTTAMDYWGEGTLVTVSSASTKGPSVFPLAPSSKSTSGGTAALGCLVKDYFPEPVTVSWNSGALTSGVHTFPAVLQSSGLYSLSSVVTVPSSSLGTQTYICNVNHKPSNTKVDKKVEPKSCDKTHTCPPCPAPDLLGDDSVFLFPPKPKDTLMISRTPEVTCVVVDVGEEDGEVKFNWYVDGVEVHNAKTKPREEQYNSTYRVVSVLTVLHQDWLNGKEYKCKVSNKALPRPIEKTISKAKGQPREPQVYTLPPSRDELTKNQVSLTCLVKGFYPSDIAVEWESNGQPENNYKTTPPVLDSDGSFFLYSKLTVDKSRWQQGNVFSCSVMHEALHNHYTQESLSLSP light: not shown
125 relative (IL6R-BF648/IL6R-L = 100) |  |  | IL6R-BP191/IL6R-L (antibody, human IgG1, kappa) heavy: QVQLQESGPGLVKPSETLSLTCAVSGHSISHDHAWSWVRQPPGEGLEWIGFISYSGITNYNPSLQGRVTISRDNSKNTLYLQMNSLRAEDTAVYYCARSLARTTAMDYWGEGTLVTVSSASTKGPSVFPLAPSSKSTSGGTAALGCLVKDYFPEPVTVSWNSGALTSGVHTFPAVLQSSGLYSLSSVVTVPSSSLGTQTYICNVNHKPSNTKVDKKVEPKSCDKTHTCPPCPAPDLLGGDSVFLFPPKPKDTLMISRTPEVTCVVVDVSDEDGEVKFNWYVDGVEVHNAKTKPREEQYNSTYRVVSVLTVLHQDWLNGKEYKCKVSNAALPKPIEKTISKAKGQPREPQVYTLPPSRDELTKNQVSLTCLVKGFYPSDIAVEWESNGQPENNYKTTPPVLDSDGSFFLYSKLTVDKSRWQQGNVFSCSVMHEALHNHYTQESLSLSP light: not shown
108 relative (IL6R-BF648/IL6R-L = 100) |  |  | IL6R-BP181/IL6R-L (antibody, human IgG1, kappa) heavy: QVQLQESGPGLVKPSETLSLTCAVSGHSISHDHAWSWVRQPPGEGLEWIGFISYSGITNYNPSLQGRVTISRDNSKNTLYLQMNSLRAEDTAVYYCARSLARTTAMDYWGEGTLVTVSSASTKGPSVFPLAPSSKSTSGGTAALGCLVKDYFPEPVTVSWNSGALTSGVHTFPAVLQSSGLYSLSSVVTVPSSSLGTQTYICNVNHKPSNTKVDKKVEPKSCDKTHTCPPCPAPDLLGGDSVFLFPPKPKDTLMISRTPEVTCVVVDVSHEDGEVKFNWYVDGVEVHNAKTKPREEQYNSTYRVVSVLTVLHQDWLNGKEYKCKVSNAALPKPIEKTISKAKGQPREPQVYTLPPSRDELTKNQVSLTCLVKGFYPSDIAVEWESNGQPENNYKTTPPVLDSDGSFFLYSKLTVDKSRWQQGNVFSCSVMHEALHNHYTQESLSLSP light: not shown
50 relative (IL6R-BF648/IL6R-L = 100) | 122 relative (IL6R-BF648/IL6R-L = 100) |  | IL6R-BP083/IL6R-L (antibody, human IgG1, kappa) heavy: QVQLQESGPGLVKPSETLSLTCAVSGHSISHDHAWSWVRQPPGEGLEWIGFISYSGITNYNPSLQGRVTISRDNSKNTLYLQMNSLRAEDTAVYYCARSLARTTAMDYWGEGTLVTVSSASTKGPSVFPLAPSSKSTSGGTAALGCLVKDYFPEPVTVSWNSGALTSGVHTFPAVLQSSGLYSLSSVVTVPSSSLGTQTYICNVNHKPSNTKVDKKVEPKSCDKTHTCPPCPAPELLGGDSVFLFPPKPKDTLMISRTPEVTCVVVDVSHEDPEVKFNWYVDGVEVHNAKTKPREEQDNSTYRVVSVLTVLHQDWLNGKEYKCKVSNKALPKPIEKTISKAKGQPREPQVYTLPPSRDELTKNQVSLTCLVKGFYPSDIAVEWESNGQPENNYKTTPPVLDSDGSFFLYSKLTVDKSRWQQGNVFSCSVMHEALHNHYTQESLSLSP light: not shown
 |  | 2.1 nM | IL6R-BP253/IL6R-L (antibody, human IgG1, kappa, S267E/L328F (EU numbering) in IL6R-B3; comparative control) heavy: QVQLQESGPGLVKPSETLSLTCAVSGHSISHDHAWSWVRQPPGEGLEWIGFISYSGITNYNPSLQGRVTISRDNSKNTLYLQMNSLRAEDTAVYYCARSLARTTAMDYWGEGTLVTVSSASTKGPSVFPLAPSSKSTSGGTAALGCLVKDYFPEPVTVSWNSGALTSGVHTFPAVLQSSGLYSLSSVVTVPSSSLGTQTYICNVNHKPSNTKVDKKVEPKSCDKTHTCPPCPAPELLGGPSVFLFPPKPKDTLMISRTPEVTCVVVDVEHEDPEVKFNWYVDGVEVHNAKTKPREEQYNSTYRVVSVLTVLHQDWLNGKEYKCKVSNKAFPAPIEKTISKAKGQPREPQVYTLPPSRDELTKNQVSLTCLVKGFYPSDIAVEWESNGQPENNYKTTPPVLDSDGSFFLYSKLTVDKSRWQQGNVFSCSVMHEALHNHYTQESLSLSP light: not shown
